The results in this text go back to PMC12501149.

As a reminder, the Kd is a measure of binding affinity in units of concentration. The low end stands for a tighter complex, the high end for a looser complex. The koff is the rate constant with which the complex falls apart. Usually kon stands for the second-order rate constant of association. High values mean fast association, low ones slow association.

The target of this assay is biotinylated RBD of TcsL (Paeniclostridium sordellii) (UniProt Q46342). The assay can be described thus: SPR.
Sequence of biotinylated RBD of TcsL (Paeniclostridium sordellii) (Q46342 whole entry): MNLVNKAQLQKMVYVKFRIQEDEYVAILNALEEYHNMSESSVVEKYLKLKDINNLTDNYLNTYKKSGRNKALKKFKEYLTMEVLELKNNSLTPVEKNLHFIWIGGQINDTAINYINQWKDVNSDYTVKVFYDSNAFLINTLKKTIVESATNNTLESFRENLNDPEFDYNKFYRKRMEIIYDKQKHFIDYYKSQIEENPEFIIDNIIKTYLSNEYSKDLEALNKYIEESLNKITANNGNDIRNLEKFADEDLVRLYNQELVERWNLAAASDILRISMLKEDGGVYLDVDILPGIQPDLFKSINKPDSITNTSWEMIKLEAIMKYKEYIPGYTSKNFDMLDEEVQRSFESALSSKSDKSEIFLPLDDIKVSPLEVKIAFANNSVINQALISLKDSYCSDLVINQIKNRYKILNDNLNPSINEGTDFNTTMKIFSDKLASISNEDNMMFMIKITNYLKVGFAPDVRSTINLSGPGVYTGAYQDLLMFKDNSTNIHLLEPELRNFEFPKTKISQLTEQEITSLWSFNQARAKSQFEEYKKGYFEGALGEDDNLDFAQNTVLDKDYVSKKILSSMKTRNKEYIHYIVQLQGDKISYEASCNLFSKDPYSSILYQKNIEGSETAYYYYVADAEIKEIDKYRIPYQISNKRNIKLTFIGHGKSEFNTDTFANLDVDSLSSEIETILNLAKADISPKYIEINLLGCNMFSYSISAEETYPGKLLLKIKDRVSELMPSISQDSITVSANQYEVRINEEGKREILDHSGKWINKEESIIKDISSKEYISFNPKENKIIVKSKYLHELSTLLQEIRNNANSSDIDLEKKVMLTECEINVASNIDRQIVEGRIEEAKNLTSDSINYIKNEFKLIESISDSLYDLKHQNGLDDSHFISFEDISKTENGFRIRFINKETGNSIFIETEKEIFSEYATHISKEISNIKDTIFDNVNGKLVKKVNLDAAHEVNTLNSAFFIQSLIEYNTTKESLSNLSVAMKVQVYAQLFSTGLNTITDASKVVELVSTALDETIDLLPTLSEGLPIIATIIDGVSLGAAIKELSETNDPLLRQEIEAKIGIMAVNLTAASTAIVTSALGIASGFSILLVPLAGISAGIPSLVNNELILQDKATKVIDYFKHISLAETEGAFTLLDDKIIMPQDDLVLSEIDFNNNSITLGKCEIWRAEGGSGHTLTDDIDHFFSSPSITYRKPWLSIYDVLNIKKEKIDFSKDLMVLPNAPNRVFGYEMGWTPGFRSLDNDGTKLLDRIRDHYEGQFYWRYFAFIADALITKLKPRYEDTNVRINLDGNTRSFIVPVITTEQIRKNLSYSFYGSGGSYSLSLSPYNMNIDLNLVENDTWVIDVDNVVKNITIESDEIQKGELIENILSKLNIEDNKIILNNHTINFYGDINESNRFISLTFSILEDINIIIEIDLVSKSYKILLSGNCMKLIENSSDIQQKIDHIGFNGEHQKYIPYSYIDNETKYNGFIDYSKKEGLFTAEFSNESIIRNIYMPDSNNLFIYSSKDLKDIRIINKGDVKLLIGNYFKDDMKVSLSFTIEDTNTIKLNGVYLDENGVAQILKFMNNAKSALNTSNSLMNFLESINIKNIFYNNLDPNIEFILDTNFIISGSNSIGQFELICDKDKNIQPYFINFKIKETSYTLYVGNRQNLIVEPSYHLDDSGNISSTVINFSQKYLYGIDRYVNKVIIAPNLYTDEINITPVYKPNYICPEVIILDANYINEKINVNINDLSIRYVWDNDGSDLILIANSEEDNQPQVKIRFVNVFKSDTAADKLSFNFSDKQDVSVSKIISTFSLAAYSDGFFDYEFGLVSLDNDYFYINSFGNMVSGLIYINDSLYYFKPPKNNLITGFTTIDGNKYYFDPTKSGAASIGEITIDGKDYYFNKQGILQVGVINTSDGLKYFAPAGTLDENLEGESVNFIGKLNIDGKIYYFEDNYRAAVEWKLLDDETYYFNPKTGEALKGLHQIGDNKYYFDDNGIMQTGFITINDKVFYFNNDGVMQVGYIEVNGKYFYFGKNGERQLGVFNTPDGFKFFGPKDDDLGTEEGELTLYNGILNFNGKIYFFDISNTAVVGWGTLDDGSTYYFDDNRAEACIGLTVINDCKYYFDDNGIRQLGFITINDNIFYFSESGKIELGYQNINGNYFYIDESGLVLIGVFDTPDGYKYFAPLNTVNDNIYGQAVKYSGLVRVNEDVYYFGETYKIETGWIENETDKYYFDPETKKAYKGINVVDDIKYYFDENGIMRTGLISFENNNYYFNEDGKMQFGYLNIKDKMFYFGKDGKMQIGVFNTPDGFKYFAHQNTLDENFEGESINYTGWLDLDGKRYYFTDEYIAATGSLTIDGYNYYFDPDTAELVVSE

B1: B10 (designed binder)
chain: NEEIIKEIKQLLKEGKKASEIIELLKKNGYEEIAKDAELAALKSKDMRKAAAETAIKKLE
As for B1, the Kd is 0.0183 nM, the koff stood at 0.000125 s⁻¹ and the kon is 6.86e+06 M⁻¹ s⁻¹.
